Data published in the supplement of paper PMC7877785.
± gives the uncertainty stated by the source.

Test: self-splicing fitness, log relative to wild type (ln ratio); higher = more splicing; Tetrahymena group I intron in knt gene, E. coli kanamycin selection, DiMSum; sequences stand for … in CUCUCU…GGAGGGAAAAGUUAUCAGGCAUGCACCUGGUAGCUAGUCUUUAAACCAAUAGAUUGCAUCGGUUUAAAAGGCAAGACCGUCAAAUUGCGGGAAAGGGGUCAACAGCCGUUCAGUACCAAGUCUCAGGGGAAACUUUGAGAUGGCCUUGCAAAGGGUAUGGUAAUAAGCUGACGGACAUGGUCCUAACCACGCAGCCAAGUCCUAAGUCAACAGAUCUUCUGUUGAUAUGGAUGCAGUUCACAGACUAAAUGUCGGUCGGGGAAGAUGUAUUCUUCUCAUAAGAUAUAGUCGGACCUCUCCUUAAUGGGAGCUAGCGGAUGAAGUGAUGCAACACUGGAGCCGCUGGGAACUAAUUUGUAUGCGAAAGUAUAUUGAUUAGUUUUGGAGUACUCGUGGUCG
Method in brief: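 Colonies from six replicate transformations of E. coli BL21(DE3) were pooled and amplicon-sequenced on an Illumina HiSeq 2500. The library placed an intron with all eight P1ex-region nucleotides randomised inside the knt kanamycin-resistance gene on pET-22b(+), and cells grew overnight at 37°C or 30°C on LB agar with or without 25 μg/mL kanamycin (plus 100 μg/mL carbenicillin, 50 μM IPTG, 0.2% rhamnose). Fitness is the DiMSum error-weighted combination of wild-type-normalised replicate fold changes, kanamycin versus none.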

Sequence	self-splicing fitness (ln) (30 °C)	self-splicing fitness (ln) (37 °C)
AAUUAGCAAUAUUACGGAGC	-2.52 ± 0.3	-2.64 ± 0.33
AAUUAGCAAUAUUACGGAUA	-1.75 ± 0.11	-0.926 ± 0.11
AAUUAGCAAUAUUACGGGGG	-2.91 ± 0.15	-2.9 ± 0.27
AAUUAGCAAUAUUACGUAAG	-1.82 ± 0.12	-0.936 ± 0.13
AAUUAGCAAUAUUACGUACA	-0.782 ± 0.086	-0.498 ± 0.096
AAUUAGCAAUAUUACGUAGC	-3.24 ± 0.25	-1.08 ± 0.32
AAUUAGCAAUAUUACGUCAU	-2.24 ± 0.18	-1.7 ± 0.17
AAUUAGCAAUAUUACGUCCC	-0.346 ± 0.41	-0.0336 ± 0.49
AAUUAGCAAUAUUACGUGCG	-0.879 ± 0.12	-0.209 ± 0.14
AAUUAGCAAUAUUACGUUCG	-1.16 ± 0.12	-0.728 ± 0.18
ACAAAGCAAUAUUACGACCG	-0.343 ± 0.1	0.578 ± 0.13
ACAAAGCAAUAUUACGAUAU	-2.1 ± 0.088	-1.15 ± 0.1
ACAAAGCAAUAUUACGCAUC	-3.49 ± 0.21	-1.74 ± 0.2
ACAAAGCAAUAUUACGCCCG	-0.191 ± 0.13	0.177 ± 0.16
ACAAAGCAAUAUUACGCCUG	-0.933 ± 0.07	-0.0625 ± 0.085
ACAAAGCAAUAUUACGGGGC	-3.69 ± 0.23	-3.28 ± 0.27
ACAAAGCAAUAUUACGGUAA	-2.45 ± 0.17	-1.49 ± 0.13
ACAAAGCAAUAUUACGUACG	-1.84 ± 0.068	-0.615 ± 0.087
ACAAAGCAAUAUUACGUAUC	-2.27 ± 0.072	-1.69 ± 0.099
ACAAAGCAAUAUUACGUCAG	-2.7 ± 0.14	-1.47 ± 0.12
ACAAAGCAAUAUUACGUCGA	-1.98 ± 0.092	-1.02 ± 0.094
ACAAAGCAAUAUUACGUGGA	-3.55 ± 0.15	-2.44 ± 0.11
ACAAAGCAAUAUUACGUUCU	-0.539 ± 0.055	-0.567 ± 0.065
ACACAGCAAUAUUACGAAGG	-1.75 ± 0.061	-2.18 ± 0.11
